The nanobody polyreactivity screen of Harvey et al. (2022)

Test: yeast display, Sf9 membrane polyspecificity reagent, FACS + sequencing; frameworks hold sequencing errors
Outline: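 A synthetic nanobody library was expressed on Saccharomyces cerevisiae BJ5465 by galactose induction for 36–48 hours. The library was stained for 1 hour at 4 °C with 10% biotinylated, detergent-solubilized Sf9 membrane reagent and enriched with streptavidin microbeads before FACS. Low and high (top ~1%) gates were set on anti-HA fluorescence for expression and streptavidin fluorescence for reagent binding, and each polyreactivity label reflects the gate of origin.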

QVQLVESGGGLVQAGGSLRLRCAASGRIFRYYAMGWYRQAPGKESELVAAITSSGGSTFYADSVKARFTISRDNAKNTVYLQMNSLKPEDTAVYYCAAPRGTRKTYNSWGQGTQVTVSS
polyreactivity (PSR sort gate): high polyreactivity

QVQLVESGGGLVQAGGSLRLSCAASGLIFYDNMGWYRQAPGKERELVAAISSSGGSTSYADSVKGRFTISRDNAKNTVYLQMNSLKPADTAVYYCAADSYPAYLGFVGFDYWGQGTQVTVSS
polyreactivity (PSR sort gate): low polyreactivity

QVQLVESGGGLVQAGGSLRLSCAASGRTFFSYAMGWYRQAPGKERELVAAISWSGGTTYYADSVKGRFTISRDNAKNTVYLQMNSLKPEDTAVYYCAAYVYQEGYRYYYWGQGTQVTVSS
polyreactivity (PSR sort gate): high polyreactivity

QVQLVESGGGLVQAGGSLRLSCAASGSIFFNTMGWYIQAPGKERELVAAISRSGGSTYYADSVKGRFTISRDNAKNTVYLQMNSLKPEDTAVYYCNALRWSQYTYSSRLGHFDSWGQGTQVTVSS
polyreactivity (PSR sort gate): high polyreactivity

QVQLVESGGGLVQAGGSLRLSCAASGFILARYAMGWYRQAPGKERELVAVISSGGSSTFYADSVKGRFTISRDNAKNTVYLQMKSLKPEDTAVYYCAARYKSSKKVGFDYWGQGTQVTVSS
polyreactivity (PSR sort gate): high polyreactivity

QVQLVESGGGLVQAGGSLRLRSPASGSTLYRYAMGWYRQAPGKERELVAAIYSSGGTTFYADSVKGRFTISRDNAKKTVYLQMKSLKPEDTAVYYCNRTARKLRTVHSSVVGLDYWGQGTQVTVSS
polyreactivity (PSR sort gate): low polyreactivity

QVQLVESGGGLVQAGGSLRLSCAASGRIFQGYAMGWYRQAPGKERELVAAITLSGGSTYYADSVKGRFTISRDHAKNTVYLQMNSLKPEDTAVYYCNAYYPDEPSLYDYWGQVTQVTVSS
polyreactivity (PSR sort gate): low polyreactivity

QVQLVESGGGLVQAGGSLRLSCAASGSTFDDYAMGWYRQATGIERELVAAINNGGSTTYADSVKGRFTISRDNAKNTVYLQMNSLKPEDTAVYYCAKDSGAWEYDYWGQGTQVTVSS
polyreactivity (PSR sort gate): low polyreactivity

QVQLVESGGGLVQAGGSLRLSCAASGITFFGYAMGWYRQAPGKERELVAGISRSTGRTYYADSVMGRFTISRDNAKYTVYLQMNSLKPEDTAVYYCDARATRSLSRYMDYWGQGTQVTVSS
polyreactivity (PSR sort gate): high polyreactivity

QVQLVESGGGLVQAGGSLRLSCAASGRTFQYNTMGWYRQAPGKERELVAAISWSGGRTYYADSVKGRFTISRDNAKNTVYLQMNSLKPEDTAVYYCAADGTPEIRDNYWGQGTQVTVSS
polyreactivity (PSR sort gate): high polyreactivity

QVQLVESGGGLVQAGGSLRLSCAASGSIFHPNAMGWYRQAPGKERELVAAITKSGGSTYYADSVKGRFTISRDNAKNTVYLQMNSLKPEDTAVYYCNALRYRRVGTLGYDYWGQGTQVTVSS
polyreactivity (PSR sort gate): high polyreactivity

QVQLVESGGGLVQAGGSLRLSCAASGNTFIPNAMGWYRQAPGKERELVAAIRASGGSTYYADSVKGRFTISRDNAKNTVYLLMNSLKPEDTAVYYCNDDIWYKTYDYWGQGTQVTVSS
polyreactivity (PSR sort gate): low polyreactivity

QVQLVESGGGLVHAGCSLRLSCAASGFTFGVYAMGWYRQAPGKERELVAAISTTVGSTYYADSVKGRFTISRDNAKNTFYLQMNSLKPEDTAVYYCAAEYTVYINYYIYEYWGQGTQVTVSS
polyreactivity (PSR sort gate): low polyreactivity

QDQLVESGGCLVQAGGSLRLSCAASGSTFRSNAMGWYRQAPGKERELVAAISRGGSTNYADSVKGRFTISRDNAKNTVYLQMNSLKTEDTAVYYCNADWDYRDFYDITYDYWGQGTQVTVSS
polyreactivity (PSR sort gate): low polyreactivity

QVQLVESGGGLVQAGGSLRLSCAASGITFYGNAMGWYRQAPGKERELVANTYYADSVKGRFTISRDNAKNTVYLQMNSLKPEDTAVYYCNVLFADKSDYWGQGTQVTVSS
polyreactivity (PSR sort gate): low polyreactivity

QVQLVESGGGLVQAGGSLRLSCAASGNIIRKYAMGWYRPAPGKERELVAAITASGGRTFYADSVKGRFTISRDNAKNTVDLQMNSLKPEDTAVYYCATRDSPRTKNGYYYWGQGTQVTVSS
polyreactivity (PSR sort gate): high polyreactivity

QVQLVESGGGLVQAGGSLRLSCAASGSIFYYNTMGWYRQAPGKEREFVADISVIGGSTYYADSVKGRFTISRDNAKNTVYLQMNSLKPEDTAVYYCAARRYLRPHGLYGYWGQGSQVTVSS
polyreactivity (PSR sort gate): low polyreactivity

QVQLVESGGGLVQAGGSLRLSCAASGFTFSYYVMGWYRPAPGKDRELVAAIDWSGDSTYYPDSVKGRFTISRDNAKNTVYLQMISLKPEDTAVYYCAADQHAYYPYYYWGQGTQVTVSS
polyreactivity (PSR sort gate): low polyreactivity

QVQLVESGGGLVQAGGSLRLSCAASGSTFVGYAMGWYRQAPGKERELVAGITASGTNTYYADSVKGRFTISRDNAKNTVYLQMNSLKPEDTAVYYCAAESNRRFEGEYWGQGTQVTVSS
polyreactivity (PSR sort gate): high polyreactivity

QVQHVESGGGLVQAGGSLRLSCAASGYIFSRYMGWYRQAPGKERQLVAAITRGGVSTYYADSVKGRFTISRDNAKNTVYLQMNSLKPEDTAVYYCATGRPVYYVASYDYDYWGQGTQVTVSS
polyreactivity (PSR sort gate): low polyreactivity

QVQLVESGGGLVQAGGSLRLSCAASGSIFDYNTMGWYRQAPGKERELVAAISSNGGSTYYADSVKGRFTISRDNAKNTVYLQMNSRNPEDTAVYYCAVSIYVYHLDLEYWGQGTQVTVSS
polyreactivity (PSR sort gate): low polyreactivity

QVQLVESGGGLVQAGGSLRLSCAASGFIFRYYAKGWYREAPGKERELVAAITSGGASTYYADSVKGRFRISRDNAKNTVYLQMNSLKPEDTPVYYCAADTSSYSEYDYWGQGTQVTVSS
polyreactivity (PSR sort gate): low polyreactivity

QVQLVESGGGLVQAGGSLRLSCAASGRTFPIYAMGWYRQAPGKERELVAAITGGGSTNYADSVKGRFTISRDNAKNTVYLQMNSLKPEDTAVYYCNARWFWYRPGGSRVDYWGQGTHVTVSS
polyreactivity (PSR sort gate): high polyreactivity

QVQLVESGGGLVQAGGSLRLSCAASGRIFDRNAMGWYRQAPGKERELVATISSGDTTDYADSVKGRFTISRDNAKNTVYLQMNSLKPEDTAVYYITIYNYWGQGTQVTVSS
polyreactivity (PSR sort gate): low polyreactivity

QVQLVESGGGLVQAGGSLRLSCAASGRTFRNYAMGWYRQAPAKERELVAAITWSGGSTYYADSVKGRFTISRDNSKNTVYLQMYSLKPEDTAVYYCNVRSYTRTYNYWGQGTQVTVSS
polyreactivity (PSR sort gate): high polyreactivity

QVQLVESGGGLVQAGGSLRLSCAASGRTFNAYTMGWYRQAPGKERELVAAITRSGARTYYADSVKGRFTISRDNAKNTVYLQMNSLKPEDTAVYYCNKAAFNYYLYGYWGQGTQVTVSS
polyreactivity (PSR sort gate): high polyreactivity

QDQHVESGGGLVQAGGSLRLSCAASGIIFYRYAMGWYRQAPGKERELVAAIRRSGGSTFYADSVKGRFTISRDNAKNTVYLQMNCLKPVDTAVYYCAAVYTGDPYGYWGQGTQVTVSS
polyreactivity (PSR sort gate): high polyreactivity

QVQLVESGGGLDQAGGSLRLSCAASGRTFADYAMGWYRQAPGNERELVADISKRGGSTYFADSVKGRFTISRDNAKNTFYLQMNSLKAEDTAVYYCAAGWYYYPTFYKVKSYNYWGQGTQVTVSS
polyreactivity (PSR sort gate): high polyreactivity

QVQLVESGGGLVQAGGSLRLSCAASGSIFGWYTMGWYRQAPGKERELVAAITWRGGTTYYADSVKGRFTISRDNAKNTVYLQMNSLKPEDTAVYYCATTRYPRSYQEFGYWGQGTQVTVSS
polyreactivity (PSR sort gate): high polyreactivity

QVQLVESGGGLVQAGGSLRLSCAASGFIFYKNAMGWSRQAPGKEREFVAAITWSGGNTYYADSVKGRFTISRDNAKNTVYLQLNSLKPEETAVYYCAARDSKWGQGTQVTVSS
polyreactivity (PSR sort gate): low polyreactivity

QVQLVESGGVLVQAGGSLRLSCAASGRIFSSYAMGWNRHAPGKERELVATSRRADSTYYADSVKGRFTISRDNAKNTVYLQMNSLKPEDTAVYYCAADTRLSRLIHRYDYWGQGTQVTVSS
polyreactivity (PSR sort gate): low polyreactivity

QFQLVESGGGLVQAGGSLRLSCAASGRTFGFYAMGWYRQAPGKERELVASITWRGGRTYYADSVKGRFTISRDNAKNTVYLQMNSLKPEDTAVYYCAAVTFSYDGYDYWGQGTQVTVSS
polyreactivity (PSR sort gate): low polyreactivity

QVQLVESGGGLVQAGGSLRLSCAASGFISQFYAMGWYRQAPGKERELVAAINWRGDSTYYADSVKGRFTISRDNAKNTVYLQMNSLKPEVTAVYYCAAENWSGYDYWGQGTQVTVSS
polyreactivity (PSR sort gate): high polyreactivity

QVQLVQSGGGLVQAGGSLRLICAASGGTFSYNTMGWYRQAPGKVRELVAVITFSGGSTYYADCVKGRFTISRDNAKNTVYLQMNSLKQEDTAVYYCAADWLSKYDYWGQGTQVTVSS
polyreactivity (PSR sort gate): low polyreactivity

QVQLVESGGGLVQAGGSLRLSCAASGSTFGHYAMGRYRQAPGKESELVSAISTSGGRTYYADSVKGRFTISRDNAKNTVYLQMNSLKPEDTAVYYCATRRYGVDKFDYWGQGTQVTVSS
polyreactivity (PSR sort gate): high polyreactivity

QVQLVESGGGLVQAGGSLRLSCAASGSIFGYNAMGWYRQAPGKEREFVAAINTSGGSTYYADSVKGSFTISRDNAKNTVYLQMYSLKPEATAVYYCAARAYSWISARYYWGLGTQVTVSS
polyreactivity (PSR sort gate): high polyreactivity

QVQLVESGGGLVQAGGSLRLSCAASGFTFFFYAMGWYRQAPGKVRELVAGISQSGGNTNYADSVKGRFTISRDNAKNTVYLQMNSLKPEDTAVYYCAKTRYQYWRVTAFDYWGQGTQVTVSS
polyreactivity (PSR sort gate): low polyreactivity

QVQLVESGGGLVQAGGSLRLSCAASGLTFVRYAMGWYRQAPGKERELVAAITTRGGSTYYADSVKGRFTISRDNAKNTVYLQMNSLKPEDTAVFYCNADRVTSSSVRYDYWGQGTQVTVSS
polyreactivity (PSR sort gate): high polyreactivity

QVQLVESGGGLVQAGGRLRLSCAASGFTFYWNAMGWYRQAPGKERELVAAINWRGTSTYYADSVKGRFTISRDNAKNTVYLQMNSLKPEDTAVDYCNTYVYVEYDWGQGTQVTVSS
polyreactivity (PSR sort gate): high polyreactivity

QVQLVESGGGLVQAGGSLRLSCAASGSTFYAYTMGWYRKAPGKERELVAGISRRGGTTYYADSVKGRFTISRDNAKNTVYLQMNSLKPEDTAVYYCAADKTKPQASEGYYAYYYWGQGTQVTVSS
polyreactivity (PSR sort gate): low polyreactivity

QVQLVESGGGLVQAGGSLRLSCAASGFTFYPNTMGWYRQAPGKERELVAAISSSGGRTYYSDSVKGRFTISRDNAKNTVYLQMNSLKPEDTAVYYCNAAKWLTSGGLDYWGIGTQVTVSS
polyreactivity (PSR sort gate): high polyreactivity

QVQLVESGGGLVQAGGSLRLSCAASGFTFTYNAMGWYRQAPGKERELVAAITANGGGTNYADSVKGRFTISRDNAKNTVYLQMNSLKPEDTAVYYCAATIVVAVFESLVFYWYTEDNYWGQGTQVTVSS
polyreactivity (PSR sort gate): low polyreactivity

QVQLVESGGGLVQAGGSLRLSCAASGRTIEYNAMGWYRQAPGKEREFVAAITYSGGGTYYADSVKGRFTISRDNAKNTVYLQMNSLKPEDTAVYYCARERTRVHKHYYWGQGTQVTVSS
polyreactivity (PSR sort gate): low polyreactivity
